For series [1] the following is noted: aqueous solution, hydrolyzes to oxaloacetate; calculated from data of Mortarino et al., 1996; cited from earlier work.
Series [2] deals with the molecule itself. Nature of the series: X-ray crystal structure, self-association (homodimer).
Series [3] in a line: ISRed enzyme assay coupled with BHAD, NADH oxidation followed at 340 nm. Format: biochemical, Paracoccus denitrificans DSM 413. The procedure: The enzyme assay to generate aspartate from β-hydroxyaspartate (catalyzed by the BHAD and ISRed enzymes) was performed at 30° C. in a total volume of 300 μl. The reaction mixture contained 100 mM potassium phosphate pH 7.5, 1 mM BHA, 0.2 mM NADH, 0.57, 2.85, 5.7 or 11.4 μg BHAD enzyme and 0.57 μg ISRed enzyme. The oxidation of NADH was followed at 340 nm on a Cary 60 UV-Vis photospectrometer (Agilent) in quartz cuvettes with a pathlength of 10 mm (Hellma Analytics). BHA (=(2R,3S)-β-hydroxyaspartate) was custom-synthesized by the company NewChem (Newcastle upon Tyne, United Kingdom), and was determined to be >95% pure by NMR analysis.
The enzyme assay to determine the initial reaction velocity of the ISRed enzymes was performed by incubating BHA and the required cofactor NADH together with a fixed amount of the ISRed enzyme and varying amounts of the BHAD enzyme. The initial velocity depends on the amount of the BHAD enzyme present in the reaction mixture, and therefore on the amount of iminosuccinate that is produced by the BHAD enzyme and is available to the ISRed enzyme, as illustrated in FIG. 6. The initial reaction velocity of the ISRed enzyme approaches a maximum in a Michaelis-Menten kinetic fit. The preliminary vmax of the ISRed enzyme determined by this method is 270±10 U mg^−1.

The values below come from patent publication US20220145339A1, “METHOD FOR PREPARATION OF PRIMARY AMINE COMPOUNDS” (Max-Planck-Gesellschaft zur Förderung der Wissenschaften …, priority 2018, published 2022).

With `N=C(CC(=O)O)C(=O)O` [iminosuccinate], the t1/2 in series [1] was 1.48 s.

B1: iminosuccinate reductase from Paracoccus denitrificans DSM 413 (enzyme)
chain: MLVVAEKEIAGLMTPEAAFEAIEAVFASMARRKAYNFPVVREAIGHEDALYGFKGGFDASALVLGLKAGGYWPNNQKHNLINHQSTVFLFDPDTGRVSAAVGGNLLTALRTAAASAVSIKYLAPKGAKVLGMIGAGHQSAFQMRAAANVHRFEKVIGWNPHPEMLSRLADTAAELGLPFEAVELDRLGAEADVIVSITSSFSPLLMNEHVKGPTHIAAMGTDTKGKQELDPALVARARIFTDEVAQSVSIGECQHAIAAGLIREDQVGELGAVVAGDDPGRGDAEVTIFDGTGVGLQDLAVAQAVVELAKHKGVAQEVEI
notes: Recombinant enzyme expressed in E. coli BL21 AI from pET16b and purified on Ni-NTA; It was crystallised, soaked with NAD+, and is described as a homodimer (PDB ID 6QKH); also called ISRed; IRed; not shown: N-terminal His tag and Factor Xa site from vector pET16b
Regarding B1, the binding result in series [2] was “binds”.

B2: ISRed: imine reductase enzyme from Paracoccus denitrificans DSM 413, amino acid sequence SEQ ID NO: 434, expressed in E. coli (protein)
chain: B1 chain
modifications: Paracoccus denitrificans DSM 413
Regarding B2, the reaction catalyzed result in series [3] (1 mM BHA, 0.2 mM NADH, BHAD and ISRed enzymes, 30° C., potassium phosphate pH 7.5) is given as “catalyzes the conversion of iminosuccinate into L-aspartate”. Besides, the vmax in series [3] (iminosuccinate synthesized in situ from BHA with varying amounts of BHAD enzyme, cofactor NADH, Michaelis-Menten fit, preliminary, n=1) was 270±10 U mg^−1.
